Measured values: the supplement of paper PMC10567573

B1: RHOBTB3 (parent)
chain: DSCCPAGIFQAMCLLICAEMYQVS
B2: RPS21 (parent)
chain: AEVSWEPGRREGCDICAGKAGCPI

Variants of: B1
Experiment: protein stability index of a GFP-peptide fusion (GPS, HEK-293T) (PSI 1-6); higher = more stable
Conditions: c terminus: a fixed tail appended
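Also: lentivirally expressed fusions sorted by FACS into six bins by GFP to DsRed ratio, PSI derived from sequencing read proportions per bin multiplied by bin number.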

Protein stability index of substitutions, site by site:
C3: P 2.93; K 3.1; T 1.39; S 3.1; A 3.18
V23: K 2.33; D 1.45
Y21: E 2.38; G 3.18; R 2.92
F9: P 1.51; A 2.97
C17: N 3.58; M 5.55
L14: A 3.65
P5: A 1.65; L 2.87; K 2.16
I8: E 1.48; P 1.68; V 3.73
M20: T 2.03
A11: Y 3.96; I 2.4
A6: P 2.76; C 3.25; L 2; M 4.16; K 3.98
L15: Y 1.98; H 1.08
D1: A 3.58; S 2.77; M 3.85; E 2.3
I16: G 3.97; D 1.34; N 2.67; M 2.51
M12: Y 2.9
S24: K 3.25; A 3.22; I 1.96; P 4.65; T 3.71; Q 3.86; L 3.43; G 2.36; Y 3.56
G7: E 1.72; N 2.19; F 2.49
Q10: K 3.05
C13: A 3.91; I 4.59; W 3.35; Q 4.88
A18: L 2.35; H 3.29
E19: N 2.31; A 2.92; K 2.48; V 3.28; M 1.55; L 5.4
Q22: V 3.65; G 3.65; D 2.17; I 2.2; S 2.99
C4: T 2.08; Q 2.56; V 2.88; G 2.06; H 4.64
S2: N 3.1; L 2.17; W 3.17

Variants of: B2
Experiment: as above
Conditions: c terminus: a fixed tail appended

Protein stability index: each site, then its substitutions
C13: H 4.27; A 2.49; D 4.06; E 4.21; R 4.04; V 5.29; G 3.88; T 4.38; Y 3.84; M 4.01; F 3.97
E6: P 3; G 2.36; Y 1.76; T 2.79; H 5.82; F 2.14; I 2; W 1.56; R 3.04; M 2.6; C 2.23; Q 2.78; V 2.66; N 3.49
D14: V 3.22; N 2.35; H 2.5; A 2.13; K 3.66; M 2.18; I 3.65
G21: M 3.01; F 2.13; N 2.82; Q 4.18; S 2.59; D 3.59; L 3.38; R 2.75; C 2.84; I 2.67; Y 3.56; A 3.26; P 3.35
I15: C 4.43; W 3.74; E 4.25; T 3.83; S 4.14; Y 3.21; V 3.53; M 3.42; H 4.36; G 4.06; R 2.96; F 2.08; Q 3.46; L 2.43
R9: Q 3.75; M 3.02; A 3.95; W 2.67; P 3.26; F 3.89; I 3.14; Y 3.1; N 3.35; T 3.67; D 4.04; L 3.49
G12: T 3.67; N 3.07; W 4.38; P 3.21; D 4.16; Q 2.45; E 3.86; I 2.52; K 2.5; C 3.29; V 2.63; M 4.41
W5: L 3.12; S 4.06; F 3.53; E 4.64; I 3.7; D 4.85; M 3.06; C 4.24; V 4.44; Y 2.91; Q 4.19; P 5.67; T 4.04; K 4.84; R 3.04
G18: A 3.08; T 3.28; H 2.97; I 2.24; W 2.74; D 4.25; F 2.75; C 2.79; K 2.7; P 3.47; N 3.63; Y 2.66; S 3.63; M 3.06
P7: V 2.23; C 2.69; F 2.21; Q 2.6; Y 2.9; R 2.53; I 2.97; S 2.77; H 3.92; E 4
R10: I 2.91; H 4.11; V 2.69; Q 3.09; Y 4.13; T 3.2; P 1.9; L 2.84; C 3.8; S 3.14; F 2.46; K 3.32; G 2.52; E 2.81; N 3.47; A 3.49
A17: P 3.72; I 2.59; M 2.29; S 2.46; F 2.3; R 2.97; L 2.01; C 3.11; Y 3.57; T 3.58; E 3.78; V 3.14; N 3.45; G 3.38; H 3.66
A20: D 3.5; T 3.75; P 3.34; L 2.48; C 4.67; V 2.59; E 2.36; R 2.26; K 1.5; S 3.69; N 3.26; F 3.1; Y 2.96; H 3.25; I 2.53
P23: Y 1.73; I 3.05; E 3.1; H 2.61; K 3.04; Q 2.68; T 2.27; A 2.32; V 2.18; F 2.04; W 1.8; D 3.85; L 2.92; M 1.48; N 2.62; G 3.82
K19: Q 2.97; I 3.79; E 4.29; G 3.99; F 2.15; N 2; L 2.3; W 1.28; T 2.62; M 2.48; Y 2.24; H 2.13; D 4.29
C16: Y 3.04; T 2.97; W 1.6; D 3.44; R 4.22; L 4; V 3.67; F 3.58; K 3.86; I 3.69; Q 4.37
E11: K 2.6; T 2.87; P 2.92; A 1.95; G 1.99; W 2.13; S 2.96; Y 2.69; F 4.96; C 3.22; D 3.37; L 2.46; N 2.55; I 2.56; H 3.53
G8: W 2.01; C 3.67; H 2.54; K 3.03; N 3.41; I 2.78; M 2.59; R 2.77; Y 1.74; F 2.46; Q 3.99; T 2.72; P 3.24
I24: Y 2.54; T 3.96; V 3.19; S 3.79; E 4.76; H 5.43; C 5.83; G 3.41; A 4.48
C22: Y 2.2; F 2.28; H 2.9; N 2.96; K 2.99; R 2.32; W 2.82; M 3.11; E 3.88; D 3.66; P 3.34
